Reference: article PMC3258177 (Molecular Biology of the Cell, 2012)

B4: Sec1-V5-His6 (natural protein)
chain: MSDLIELQRNYLIGVLNQIETKNNLKFLIIDKTVETILSYLFLTPQELLNNVTSVDLIDSPTRKGQSSIEAIYILEPTKYNINCIDADFMVRPPKYRRCHIRFLPGLTNPIFQFFQSKRYIAQNLESFKPIELGFFVKESQFFETLQMEHSLQVFFNNNCKALIPTNVRKIVGSLVSLCVITGEYPIVRYSVSNPVEEEDARNGNAVVNANSLTRSIANAFQIAIDTYARNNPDFPPQNTERPRSILIITDRTLDPFAPILHDFSYQAMAYDLVANVDTQKDIYHYSAENEAGEQEEKVSKLVDLYDPDWIDLKHQHIMDANEYIQGRIKELIAKNPLLVDRSNVKNTTDLLSVVAHLKDFDEERRRLILHKTLVDECLGENAERKLADISAIEQNLSGFGMDFSGEKIKHIIDDLLPALAMKEPTILDKLRYIIAYALFRGGIIELDFIKLLNFIGVTHEHENFQQYLKIFRNYDLIDFKLIKDKPKDKPFQKEWFHDTLVNDPNIYHTSRFVPAVGNILSKVIANPLLLSEQYFPYLKDKPIELLNEEEFQAGLANTSANSSSSLRNPRHKAAWTTKSSNIKKNIPRQRFFYYVIGGISIPEIKAAYDQSNLKNRDIFIGSDEILTPTKFLDEVERLQNPREFFKFKEDQRQQVNPPDFLLREMKPVAQPVSHVHLKSQDNSPKSGTSSPKAAGSLKSEPPEKEKKRSKFSRFLKRKSHHDK

Key:
Sec1-V5-His6 = biological target: B4; assay: pull-down
Recombinant Sec6 (1–805) [1] = biological target: T1, Recombinant Sec6 (1–805) (yeast, UniProt P32844 1-805); assay: […]
T1 sequence: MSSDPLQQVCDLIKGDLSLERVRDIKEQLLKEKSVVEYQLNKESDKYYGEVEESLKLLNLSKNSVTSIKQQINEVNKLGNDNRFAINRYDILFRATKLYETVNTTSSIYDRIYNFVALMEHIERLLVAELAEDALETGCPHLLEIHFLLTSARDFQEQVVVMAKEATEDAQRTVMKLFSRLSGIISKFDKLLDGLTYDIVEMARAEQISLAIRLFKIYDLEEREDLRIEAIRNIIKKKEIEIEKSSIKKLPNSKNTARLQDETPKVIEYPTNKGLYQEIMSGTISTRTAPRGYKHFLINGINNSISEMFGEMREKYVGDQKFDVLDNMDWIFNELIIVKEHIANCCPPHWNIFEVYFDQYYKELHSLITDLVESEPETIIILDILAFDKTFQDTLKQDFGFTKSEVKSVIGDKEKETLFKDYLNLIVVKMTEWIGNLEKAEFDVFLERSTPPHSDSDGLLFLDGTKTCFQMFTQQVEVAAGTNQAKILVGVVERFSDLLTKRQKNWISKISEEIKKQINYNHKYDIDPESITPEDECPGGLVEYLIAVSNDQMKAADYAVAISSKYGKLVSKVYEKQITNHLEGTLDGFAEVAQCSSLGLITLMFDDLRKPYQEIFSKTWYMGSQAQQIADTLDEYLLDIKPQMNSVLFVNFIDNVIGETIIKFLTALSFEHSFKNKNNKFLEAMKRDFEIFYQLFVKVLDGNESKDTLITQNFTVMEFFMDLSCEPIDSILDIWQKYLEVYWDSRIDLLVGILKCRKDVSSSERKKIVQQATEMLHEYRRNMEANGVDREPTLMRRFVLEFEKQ

Recombinant Sec6 (1–805) [2] = biological target: T1, Recombinant Sec6 (1–805); assay: SEC
Recombinant Sec6 (1–805) [3] = biological target: T1, Recombinant Sec6 (1–805); assay: pull-down

B1: Sso1, cytoplasmic region (domain or fragment)
chain: MSYNNPYQLETPFEESYELDEGSSAIGAEGHDFVGFMNKISQINRDLDKYDHTINQVDSLHKRLLTEVNEEQASHLRHSLDNFVAQATDLQFKLKNEIKSAQRDGIHDTNKQAQAENSRQRFLKLIQDYRIVDSNYKEENKEQAKRQYMIIQPEATEDEVEAAISDVGGQQIFSQALLNANRRGEAKTALAEVQARHQELLKLEKSMAELTQLFNDMEELVIEQQENVDVIDKNVEDAQLDVEQGVGHTDKAVKSARKARKNKIR
Kd (Sec1-V5-His6): > 10000 nM

B2: MBP-Sec9CT (domain or fragment)
chain: ARQQQEEDEAVDEIKQEIKFTKQSSVASTRNTLKMAQDAERAGMNTLGMLGHQSEQLNNVEGNLDLMKVQNKVADEKVAELKKLNRSILAVHVSNPFNSKRRRREREEQLKNRKIEEKLMREQTSQQLSQSTQRIEGAMNANNNISEVRERYQRKNVLEKAKRYQFENDEEDDEMELEIDRNLDQIQQVSNRLKKMALTTGKELDSQQKRLNNIEESTDDLDINLHMNTNRLAGIR
binding result (Recombinant Sec6 (1–805) [1]): binds

B3: Sec9CT (416–651) (domain or fragment)
chain: ARQQQEEDEAVDEIKQEIKFTKQSSVASTRNTLKMAQDAERAGMNTLGMLGHQSEQLNNVEGNLDLMKVQNKVADEKVAELKKLNRSILAVHVSNPFNSKRRRREREEQLKNRKIEEKLMREQTSQQLSQSTQRIEGAMNANNNISEVRERYQRKNVLEKAKRYQFENDEEDDEMELEIDRNLDQIQQVSNRLKKMALTTGKELDSQQKRLNNIEESTDDLDINLHMNTNRLAGIR
binding result (Recombinant Sec6 (1–805) [2]): binds

B4
Kd (Recombinant Sec6 (1–805) [3]): ~1700 nM
